Laboratory results published in patent publication US20210139605A1 (AGENCY FOR SCIENCE TECHNOLOGY AND RESEARCH, published 2021).
Positions count from the first letter of the chain named.

B1: P1F1 antibody (antibody, V domains shown)
VH: QVQLVESGPGLVKPSGTLSLTCAVSGGSISSSNWWSWVRQPPGKGLEWIGEIYHSGSTNYNPSLKSRVTISVDTSKNQFSLKLSSVTAADTAVYYCARMGANSGGYLYGMDVWGQGTTVTVSS
VL: QTVVTQEPSFSVSPGGTVTLTCGLSSGSVSTSYYPSWYQQTPGQAPRTLIYSTNTRSSGVPDRFSGSILGNKAALTITGAQADDESDYYCVLYMGSGIWVFGGGTKLTVLG
B2: PFG3 Fab (Fab, V domains shown)
VH: EVQLVQSGAEVKKPGTSVTVSCRASGFTFSDYYIHWVRQAPGQGLEWMGWVSAYNGDTNYAQKFQGRVTVTTDTSTSTAYMELRSLRSDDTAVYFCAREIASYSGSYYDYWGQGTLVTVSS
VL: B1 VL with T2A, T5L, S25T, S28A, T31S, S52N, N54D, T55I, S57F, W99S
notes: Printed entries run through CL and CH1 (Fab chains); Label G3 tied to PFG3 by inference
B3: P1C5 antibody (antibody, V domains shown)
VH: QVQLQESGPGLVKPSETLSLTCTVSGGSISSSSYYWGWIRQPPGKGLEWIGSIYYSGSTYYNPSLKSRVTISVDTSKNQFSLKLSSVTAADTAVYYCARYAPDSSGYLVAFDIWGQGTMVTVSS
VL: B1 VL with S32G, T55S, W99S
B4: P1E4 antibody (antibody, V domains shown)
VH: QVQLQQWGAGLLKPSETLSLTCAVYGGSFSGYYWSWIRQPPGKGLEWIGEINHSGSTNYNPSLKSRVTISVDTSKNQFSLKLSSVTTADTAVYYCARMGINSGGYLYGMDVWGQGTTVTVSS
VL: B1 VL with T41I, S52T, T55I, S65G, D83E, V91M
B5: PFF5 Fab (Fab, V domains shown)
VH: B3 VH with K83R, T88S
VL: B1 VL with T2A, T5I, S32T, S96N, W99S
B6: P1A3 antibody (antibody, V domains shown)
VH: EVQLVQSGTEVKKPGASVRVSCKSSGYTFTSYYIHWVRQAPGQGLEWMAIINPGNGDTNYAQRFQGRVTMTRDTSTSTVYMELRSLRSDDTAVYFCAREIASYSGSYYDYWGQGTLVTVSS
VL: B1 VL with T2A, F10L, S32G, Y33H, P35A, I50F, S52N, L69V, M94V, S96D
B7: PFE1 Fab (Fab, V domains shown)
VH: EVQLVQSGGGVVQPGRSLRLSCAASGFTFSSYAMHWVRQAPGKGLEWVAVISYDGSNKYYADSVKGRFTISRDNSKNTLYLQMNSLRAEDTAVYYCARSRGYYGMDVWGQGTTVTVSS
VL: DVVMTQSPLSLPVTLGQPASISCTSSQSLVYSDGNTYLNWFQQRPGQSPRRLIYKVSKRDSGVPDRFSGSGSGTDFTLKISRVEAEDVAIYYCMQGTHWPLTFGGGTKVEIKR
notes: Printed entries run through CL and CH1 (Fab chains); Label E1 tied to PFE1 by inference
B8: PFB4 Fab (Fab, V domains shown)
VH: B7 VH with A33G, N74D, R98K, S99D
VL: QAVVIQEPSLTVSPGGTVTLTCGSTTGAVTSGHYPSWFQQKPGQAPRALIYSTSNKHSWTPARFSGSLLGGKAALTLSGVQPEDEAEYYCLLYYGGARVFGGGTKLTVLG
notes: Printed entries run through CL and CH1 (Fab chains); Label B4 tied to PFB4 by inference

Legend:
[1] = molecular target: T1, EGFR (UniProt P00533 25-645, limits assumed); test: SPR, EGFR immobilised on the chip, antibody flowed; concentration not given [panel P1F1]
T1 construct: also called HER1
Excerpt: (§1) In order to assess the specificity of the binding, molecules closely related to HER-2 were also used as bound antigens, namely EGFR and HER-3.

[2] = molecular target: T2, HER-3 (UniProt P21860 20-643, limits assumed); test: SPR, HER-3 immobilised on the chip, antibody flowed; concentration not given [panel P1F1]
T2 sequence (P21860 20-643 limits assumed): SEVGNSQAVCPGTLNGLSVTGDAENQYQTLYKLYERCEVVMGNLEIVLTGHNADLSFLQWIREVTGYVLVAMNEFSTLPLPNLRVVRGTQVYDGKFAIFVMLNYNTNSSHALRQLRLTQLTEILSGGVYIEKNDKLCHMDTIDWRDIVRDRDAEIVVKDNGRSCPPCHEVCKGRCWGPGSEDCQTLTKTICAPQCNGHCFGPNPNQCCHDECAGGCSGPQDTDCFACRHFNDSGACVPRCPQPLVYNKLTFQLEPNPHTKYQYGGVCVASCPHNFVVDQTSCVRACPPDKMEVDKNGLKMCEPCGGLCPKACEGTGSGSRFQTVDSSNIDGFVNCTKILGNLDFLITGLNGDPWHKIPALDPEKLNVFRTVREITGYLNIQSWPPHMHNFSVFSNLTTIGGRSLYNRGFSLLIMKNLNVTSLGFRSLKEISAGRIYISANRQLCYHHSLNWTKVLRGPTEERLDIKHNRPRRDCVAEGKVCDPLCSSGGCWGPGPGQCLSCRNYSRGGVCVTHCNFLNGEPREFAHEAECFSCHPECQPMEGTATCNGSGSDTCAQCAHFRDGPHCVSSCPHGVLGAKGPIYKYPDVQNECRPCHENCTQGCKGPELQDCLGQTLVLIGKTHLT
Excerpt: as §1

[3] = molecular target: T3, human HER-2 protein (soluble / recombinant, used in SPR) (human, UniProt P04626 23-652); test: SPR
T3 construct: also called immobilized HER2 protein; recombinant HER-2

[4] = molecular target: T3, human HER-2 protein (soluble / …); test: SPR, human HER2 immobilised, Fab flown, 1:1 Langmuir model
Procedure: Rate constants of association, dissociation (kₐ, kd) and the equilibrium dissociation constants (KD) were determined for anti-HER2 Fab molecules. Human HER2 protein (50 μg/mL) was immobilised on the SPR sensor chip and was exposed to five different concentrations of each Fab in 2- or 3-fold dilutions over the flow cells. 1:1 Langmuir model was used to derive the constants.

[5] = molecular target: T3, human HER-2 protein (soluble / …); test: SPR, immobilized HER2 protein
[6] = molecular target: T2, HER-3; test: SPR, HER-3 immobilised on the chip, antibody flowed; concentration not given [panel P1C5]
Excerpt: as §1

[7] = molecular target: T1, EGFR; test: SPR, EGFR immobilised on the chip, antibody flowed; concentration not given [panel P1C5]
Excerpt: as §1

[8] = molecular target: T2, HER-3; test: SPR, HER-3 immobilised on the chip, antibody flowed; concentration not given [panel P1E4]
Excerpt: as §1

[9] = molecular target: T1, EGFR; test: SPR, EGFR immobilised on the chip, antibody flowed; concentration not given [panel P1E4]
Excerpt: as §1

[10] = molecular target: T2, HER-3; test: SPR, HER-3 immobilised on the chip, antibody flowed; concentration not given [panel P1A3]
Excerpt: as §1

[11] = molecular target: T1, EGFR; test: SPR, EGFR immobilised on the chip, antibody flowed; concentration not given [panel P1A3]
Excerpt: as §1

Binder | Kd [3] | Kd [4] | koff [4] | kon [4] | koff [5] | also measured
B1 | 11.6 nM |  |  |  |  | binding result [1]: no binding; binding result [2]: no binding
B2 |  | 183 nM | 0.019 s⁻¹ | 108000 M⁻¹ s⁻¹ | 0.0158 s⁻¹ | 
B3 | 12.7 nM |  |  |  |  | binding result [6]: no binding; binding result [7]: no binding
B4 | 5.3 nM |  |  |  |  | binding result [8]: no binding; binding result [9]: no binding
B5 |  | 305 nM | 0.014 s⁻¹ | 44500 M⁻¹ s⁻¹ | 0.0141 s⁻¹ | 
B6 | 21.4 nM |  |  |  |  | binding result [10]: no binding; binding result [11]: no binding
B7 |  | 16.5 nM | 0.026 s⁻¹ | 1.59e+06 M⁻¹ s⁻¹ | 0.013 s⁻¹ | 
B8 |  | 17.6 nM | 0.078 s⁻¹ | 4.41e+06 M⁻¹ s⁻¹ | 0.0322 s⁻¹ | 
